Measurements reported in PMC3824080.

Target: T1, Human cytosolic aspartyl-tRNA synthetase (human), P14868
T1 chain: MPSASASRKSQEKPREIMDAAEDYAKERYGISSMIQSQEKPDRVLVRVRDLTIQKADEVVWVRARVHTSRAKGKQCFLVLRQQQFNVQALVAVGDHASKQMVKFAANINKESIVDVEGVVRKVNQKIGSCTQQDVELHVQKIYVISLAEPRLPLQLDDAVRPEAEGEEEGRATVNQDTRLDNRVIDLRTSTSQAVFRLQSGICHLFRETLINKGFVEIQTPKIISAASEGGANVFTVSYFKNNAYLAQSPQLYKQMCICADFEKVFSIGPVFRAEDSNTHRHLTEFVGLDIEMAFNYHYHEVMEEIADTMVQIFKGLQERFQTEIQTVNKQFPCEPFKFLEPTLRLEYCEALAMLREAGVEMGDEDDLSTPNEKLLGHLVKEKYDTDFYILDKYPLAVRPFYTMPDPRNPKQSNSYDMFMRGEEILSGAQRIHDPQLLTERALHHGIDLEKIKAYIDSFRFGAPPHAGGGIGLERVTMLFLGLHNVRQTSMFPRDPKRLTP
Test: crystal structure
Details: remark: other sources report otherwise

B1: Human cytosolic aspartyl-tRNA synthetase, P14868 1-501 (enzyme)
chain: MPSASASRKSQEKPREIMDAAEDYAKERYGISSMIQSQEKPDRVLVRVRDLTIQKADEVVWVRARVHTSRAKGKQCFLVLRQQQFNVQALVAVGDHASKQMVKFAANINKESIVDVEGVVRKVNQKIGSCTQQDVELHVQKIYVISLAEPRLPLQLDDAVRPEAEGEEEGRATVNQDTRLDNRVIDLRTSTSQAVFRLQSGICHLFRETLINKGFVEIQTPKIISAASEGGANVFTVSYFKNNAYLAQSPQLYKQMCICADFEKVFSIGPVFRAEDSNTHRHLTEFVGLDIEMAFNYHYHEVMEEIADTMVQIFKGLQERFQTEIQTVNKQFPCEPFKFLEPTLRLEYCEALAMLREAGVEMGDEDDLSTPNEKLLGHLVKEKYDTDFYILDKYPLAVRPFYTMPDPRNPKQSNSYDMFMRGEEILSGAQRIHDPQLLTERALHHGIDLEKIKAYIDSFRFGAPPHAGGGIGLERVTMLFLGLHNVRQTSMFPRDPKRLTP
Q: Which stoichiometry N does the source give for B1 here?
A: The stoichiometry N was 2.
